Laboratory results published in article PMC5156906.

Target: Calcineurin A subunit alone, residues 1-348 (human) (UniProt Q08209)
Experiment: ITC; NFAT peptides, PALB2 or SYDE2 titrated into calcineurin in the cell; 25 °C; 20 mM Tris pH 7.5, 100 mM NaCl, 1.0 mM CaCl2, 0.5 mM TCEP; one set of sites model with n=1; averages of >=3 experiments (SYDE2: 2)

Row | Binder | Kd [µM]
1 | ESPRIEITS [NFATc1 PxIxIT peptide 116…124] | 4.1
2 | DDQYLAVPQHPYQWAKPK [NFATc1 LxVP long peptide 383…400] | 2.4
